Test results as given in the nanobody polyreactivity screen of Harvey et al. (2022).

Experiment: yeast display, Sf9 membrane polyspecificity reagent, FACS + sequencing; frameworks hold sequencing errors
How it was run: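 Synthetic nanobody libraries on Saccharomyces cerevisiae BJ5465 were galactose-induced for 36–48 hours, stained 1 hour at 4 °C with 10% biotinylated, detergent-solubilized Sf9 membrane reagent and enriched on streptavidin microbeads. FACS then separated cells into low and high (top ~1%) gates by anti-HA (expression) and streptavidin (reagent binding) fluorescence. Genes were colony-PCR amplified, MiSeq 2 × 250 sequenced and CDR-length filtered. A clone's polyreactivity label is that of its gate of origin.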

| Sequence | polyreactivity (PSR sort gate) |
| --- | --- |
| QVQLVESGGGLVQAGGSLRLSCAASGIIFLQYAMGWYRQAPGKERELVAAITRRGDRTYYADSVKGRFTISRDNAKNTVYLQMNSLKPEDTAVYYCAASYWYRDYYYWGQGTQVTVSS | high polyreactivity |
| QVQLVESGGGLVQAGGSLRLSCAASGIIFLRNTMGWYRQAPGKERELVASISRRGGSTYYADSVKGRFTISRDNAKNTVYLQMNSLKPEDTAVYYCNKRSLEKGDYWGQGTQVTVTS | high polyreactivity |
| QVQLVESGGGLVQAGGSLRLSCAASGIIFLTHAMGWYRQAPGKERELVAAITAIGGSTYYADSVKGRFTLSRDNAMNTVYLLMISLKPEDTADYYCAADFSYVYYLYDFWGQGTKVTVSS | low polyreactivity |
| QVQLVESGGGLVQAGGSLRLSCAASGIIFNFNAMGWYSQAPGKERELVAGISYGGGRTYYADSVKGRFTISRDNAINTVYLQMNSLKPEDTAFYYCNKYGLGIYRGYYWGQGTQVTVSS | high polyreactivity |
| QVQLVESGGGLVQAGGSLRLSCAASGIIFNHYAMGWYGQAPGKERELVAAISRRGGSTYDADSVKGRFTISRDNAKNTVYLQMNSLKPEDTAVYYCNDRSFATGSKVPARGYWGQGTQVTVSS | high polyreactivity |
| QVQLVESGGGLVQAGGSLRLSCAASGIIFNRYAMGWYRQAPGKERELVAAITYSGDNTYYADSVKGRFTISRDNAKNTVYLQMNSLKPEDTAVYYCAAVSSRGGDYYWGQGTQVTVSS | high polyreactivity |
| QVQLVESGGGLVQAGGSLRLSCAASGIIFNSNAMGWYRQAPGKERELVAGISRGSSTSYADSVKGRFTISRDNAKNPVYLQMNSLKPADNAVYFCNAEVYSPQQFTPPDRYYYWGQGTQVTVSS | low polyreactivity |
| QVQLVESGGGLVQAGGSLRLSCAASGIIFNVNAMGWYRQAPGKERELVASINSGSTYYADSVKGRFTISRDNAKNTVYLQMNSLKPEDTAVYYCATGARSPPWGRSKKRTYYYWGQGTQVTVSS | high polyreactivity |
| QVQLVESGGGLVQAGGSLRLSCAASGIIFNYYTMGWYRQAPGKERELVAVITSRGSSPYYADSVKGRFTISRDNAKNTVNLQMNSLKPDDTAVYYCAKVRPYLDTNEYYYWGQGTQVTVSS | high polyreactivity |
| QVQLVESGGGLVQAGGSLRLSCAASGIIFPAYAMGWYRQARGKERELVAAITSRGGSTYYADSVKGRFTISRDNAKNTVYLQMNSLKPEDTAVYYCNAAALADYDYWGQGTQVTVSS | low polyreactivity |
| QVQLVESGGGLVQAGGSLRLSCAASGIIFPGKAMGWYRQAPGKERELVAAISSGGNTKYADSVKGRFTISRDNAKNTGYLQMNSLNPEDTAVYYCAAAARARNPSYGRNYWGQGTQVTVSS | high polyreactivity |
| QVQLVESGGGLVQAGGSLRLSCAASGIIFPQNAMGWSRQAPGKERELVAAISKSGGRTYYADSVKGRFTISRDNAKNTVYVQMNSLKPEDSAVYYCAKVPYAYSRDRSAEDSWGQGTQVTVSS | high polyreactivity |
| QVQLVESGGGLVQAGGSLRLSCAASGIIFPRYAMGWYRQAPGKERELVAAITRRGGRTYYADSVKGRFTISRDNAKNTVYLQMNSLKPEDTAVYYCNADFISPRPPKATDEDYWGQGTQVTVSS | high polyreactivity |
| QVQLVESGGGLVQAGGSLRLSCAASGIIFPSYDMGWYRQAPGKERELVAAINSGDSTYYADSVKGRFTISRDNAKNTVYLQMNSLKPEDTAVYYCAANPGDLGGWYVPYDYWGQGTQVTVSS | low polyreactivity |
| QVQLVESGGGLVQAGGSLRLSCAASGIIFPSYVMGWYRQAPGKERELVAVITWSGGSTYYADSVKGRFTISRDNAKNTVYLQMNSLKPEDTAVYYCARRRRWVHSFDYWGQGTQVTVSS | high polyreactivity |
| QVQLVESGGGLVQAGGSLRLSCAASGIIFPTYVMGWYRQAPGKERELVAVISWSGASTYYADSVKGRFTISRDNAKNSVYLQMNSLKPEDTAVYYCAADWWRVEMDYWGQGTQVTVSS | low polyreactivity |
| QVQLVESGGGLVQAGGSLRLSCAASGIIFPYYAMGWYRQAPGKERELVAAINSSGGSTFYAHSVKGRFTISRDNAKNTVYLQMNSLKPVVTAVYYCAAETLRYRWSLYYWGQGTQVTVSS | high polyreactivity |
